Measured values published in US20220017630A1 (JIANGSU SIMCERE PHARMACEUTICAL, published 2022).

T1: mouse TNFR2 (mouse, UniProt P25119 23-258, limits assumed)
T1 sequence (looked up): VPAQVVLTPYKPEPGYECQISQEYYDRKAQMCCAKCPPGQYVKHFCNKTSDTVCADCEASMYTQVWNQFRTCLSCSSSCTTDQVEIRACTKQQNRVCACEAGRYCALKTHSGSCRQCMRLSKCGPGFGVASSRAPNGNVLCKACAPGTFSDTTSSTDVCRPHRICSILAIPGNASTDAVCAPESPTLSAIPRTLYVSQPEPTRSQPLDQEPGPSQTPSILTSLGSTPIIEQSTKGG

T2: human TNFR2 on the cell surface (CHO-TNFR2 cells; human Treg cells) (human, UniProt P20333 23-461)
T2 sequence (looked up): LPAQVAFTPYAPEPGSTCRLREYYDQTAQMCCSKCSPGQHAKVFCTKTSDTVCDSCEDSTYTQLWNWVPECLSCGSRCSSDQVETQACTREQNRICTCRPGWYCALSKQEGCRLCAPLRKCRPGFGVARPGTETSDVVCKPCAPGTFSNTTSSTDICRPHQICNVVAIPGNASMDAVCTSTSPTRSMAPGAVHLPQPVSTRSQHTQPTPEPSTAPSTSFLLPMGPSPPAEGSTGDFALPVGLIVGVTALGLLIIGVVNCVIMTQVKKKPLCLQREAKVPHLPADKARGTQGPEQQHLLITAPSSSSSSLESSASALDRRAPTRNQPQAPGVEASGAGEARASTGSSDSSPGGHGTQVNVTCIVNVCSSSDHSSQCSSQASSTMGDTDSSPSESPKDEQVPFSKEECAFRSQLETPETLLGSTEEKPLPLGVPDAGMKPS

T3: Human TNFR2 recombinant protein (Sino 10417-H08H) (human, UniProt P20333 23-257)
T3 construct: also called hTNFR2 (His tag)
T3 sequence (looked up): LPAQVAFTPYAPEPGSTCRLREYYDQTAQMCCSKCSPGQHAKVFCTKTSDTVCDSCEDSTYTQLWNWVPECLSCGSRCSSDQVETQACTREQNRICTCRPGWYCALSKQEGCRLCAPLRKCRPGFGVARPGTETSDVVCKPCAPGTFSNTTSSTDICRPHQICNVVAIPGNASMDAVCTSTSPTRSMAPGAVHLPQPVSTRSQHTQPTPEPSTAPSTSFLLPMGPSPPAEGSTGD

T4: cynomolgus TNFR2 (Sino 90102-C08H) (cynomolgus, UniProt A0A2K5VET2 132-366)
T4 construct: also called CynoTNFR2 (His tag)
T4 sequence: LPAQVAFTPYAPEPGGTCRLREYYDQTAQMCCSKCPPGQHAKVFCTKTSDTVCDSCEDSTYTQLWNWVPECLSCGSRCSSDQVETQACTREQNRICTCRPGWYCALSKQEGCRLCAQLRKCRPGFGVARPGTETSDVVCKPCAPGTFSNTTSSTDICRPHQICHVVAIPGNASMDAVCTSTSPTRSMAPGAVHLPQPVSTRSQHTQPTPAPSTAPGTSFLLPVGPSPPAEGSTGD

T5: human TNFR2 (Novoprotein, Catalog No. C830) (human, UniProt P20333 23-257, limits assumed)
T5 construct: construct not described; also called TNFR2 protein
T5 sequence (looked up): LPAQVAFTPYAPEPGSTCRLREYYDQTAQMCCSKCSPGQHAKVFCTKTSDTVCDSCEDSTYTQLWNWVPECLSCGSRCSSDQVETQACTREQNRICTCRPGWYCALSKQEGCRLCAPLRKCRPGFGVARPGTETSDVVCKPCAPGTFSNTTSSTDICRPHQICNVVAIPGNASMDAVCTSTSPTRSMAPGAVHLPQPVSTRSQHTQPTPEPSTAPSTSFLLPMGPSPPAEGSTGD


Key:
mouse TNFR2 = biological target: T1, mouse TNFR2; experiment: ELISA
[1] = biological target: T2, human TNFR2 on the cell surface …; experiment: cell-based or functional assay
[2] = biological target: T2, human TNFR2 on the cell surface …; experiment: cell-based or functional assay; remark: listed apart in the source
[3] = biological target: T3, Human TNFR2 recombinant protein (Sino …); experiment: ELISA, coated antigen 0.5 ug/ml, antibody 28 ng/ml
Description: (§1) An microplate was pre-coated with 100 μl/well of 0.5 μg/ml human TNFR2 or cynomolgus TNFR2 (the same antigen protein as in Example 4). […] A mouse anti-human IgG Fc-HRP working solution (1:10000 dilution) was added to the plate at 100 μl/well after plate washing, and incubated with shaking at room temperature for 1.0 h. The plate was washed again, a HRP substrate TMB was added for color development prior to the termination of the reaction by adding termination solution. An microplate reader was used to read the absorption value.

[4] = biological target: T4, cynomolgus TNFR2 (Sino 90102-C08H); experiment: ELISA, coated antigen 0.5 ug/ml, antibody 28 ng/ml
Description: as §1

[5] = biological target: T2, human TNFR2 on the cell surface …; experiment: flow cytometry, blocking of TNFα-biotin on CHO-TNFR2 cells
Description: (§2) CHO cells that stably overexpressed human TNFR2 were used for experiments. The cells were resuscitated and passaged until in good state, and the expression level of human TNFR2 on the cells was assessed by FACS. Compared to the isotype control, the assay could be carried out when the fold change of mean fluorescence intensity (MFI) was more than 100 times.
(§3) CHO-TNFR2 cells were digested, washed twice with DPBS and stained with Live/Dead (L/D) at room temperature for 20 min, and then seeded at 1×10⁵ cells/50 μl/well. […] The diluted antibodies were added 50 μl/well into wells pre-seeded with cells, and gently blown and mixed to make the final concentrations of the antibodies to 20, 6.67, 2.22, 0.74, 0.247, 0.08, 0.027 and 0 nM, respectively followed by incubation at 4° C. for 30 min. […] After washing twice with the staining buffer, 100 μl/well of PE-streptavidin was added and incubated at 4° C. for 30 min. After additional washing with the staining buffer twice, 150 μl resuspended cells was analyzed using an flow cytometry. Taking the logarithmic value of the antibody concentrations as abscissa and the corresponding MFI value as ordinate, the inhibition curve of the antibody was drawn, and the IC50 value was calculated by four parameters fitting.

[6] = biological target: T5, human TNFR2 (Novoprotein, Catalog No. …); experiment: blocking ELISA, TNFα-biotin on coated human TNFR2, antibody 2 nM
Description: A microplate was pre-coated with 100 μl/well of 1 μg/ml human TNFR2 (Novoprotein, Catalog No. C830). […] After washing the plate, a Streptavidin-HRP working solution (1:10000 dilution) was added at 100 μl/well, and incubated with shaking at room temperature for 40 min. The plate was washed again, the HRP substrate TMB was added for color development, the termination solution was added to terminate the reaction, and the microplate reader was used to read the absorption value.

[7] = biological target: T2, human TNFR2 on the cell surface …; experiment: flow cytometry, blocking of TNFα-biotin on CHO-TNFR2 cells; against 002#
Description: as §2, §3

[8] = biological target: T3, Human TNFR2 recombinant protein (Sino …); experiment: ELISA, coated antigen 0.5 ug/ml, antibody 12 ng/ml
[9] = biological target: T4, cynomolgus TNFR2 (Sino 90102-C08H); experiment: ELISA, coated antigen 0.5 ug/ml, antibody 12 ng/ml

| Binder | binding result (mouse TNFR2) | proliferation inhibition (TNFα-induced Treg cell proliferation, against anti-Hel) [1] | % AUC versus positive control (#52), ADCC against Treg [2] | ELISA OD [3] | ELISA OD [4] | IC50 [5] | ELISA OD of antibodies to be tested (2 nM) [6] | IC50 Relative Value % [7] | ELISA OD [8] | ELISA OD [9] |
| --- | --- | --- | --- | --- | --- | --- | --- | --- | --- | --- |
| TNFR2 antibody #219 (antibody, V domains shown) VH: EVQLQESGAELVRPGASVKLSCKASGYSFTNYWMNWVKQRPGQGLEWIGMIHPSDTETRLNQNFKDKATLTVDKSSSTSYMQLSSPTSEDSAVYYCARGEGLGAARSVSMDYWGQGTTVTVSS VL: DILMTQSPSSLSASLGDRVTISCRASQDISNYLNWYQQKPDGTVKVLIYYTAILHSGVPSRFSGSGSGTDYSLTISNLEQEDIATYFCQQGNTLPWTFGGGTKLEIK | no binding (tested: 28 ng/ml) | 13.6% | 52.7% | 3.37 OD | 3.41 OD | 0.101 µg/mL | 0.756 OD | 71.4% | – | – |
| TNFR2 antibody #226 (antibody, V domains shown) VH: EVQLQESGAELVRPGASVKLSCKASGYSFTNYWMNWVKQRPGQGLEWIGMIHPSDSETRLNQKFKDKATLTVDKSSSTAYMQLSSPTSEDSAVYYCARGEGLGAARSVSMDYWGQGTTVTVSS VL: DIQMTQSPSSLSASLGDRVTISCRASQDISNYLNWYQQKPDGTVKVLIYYTALLHSGVPSRFSGSGSGTDYSLTISNLEQEDIATYFCQQGNTLPWTFGGGTKLEIK | no binding (tested: 28 ng/ml) | 10.3% | 69% | 3.34 OD | 3.28 OD | 0.06 µg/mL | 0.709 OD | 129% | – | – |
| TNFR2 antibody #088 (antibody, V domains shown) VH: EVQLQESGGGLVQPGGSLNLSCAASGFAFSTYDLSWVRQTPGKRLEWVAYINNGGISTYYSDTVKGRFTITRDNAKNTLYLQMSSLKSEDTAMYYCVRGPFYGSANYFDYWGQGTTVTVSS VL: DILMTQSPASLSLFVGETVTITCRASENIYSNLAWYQQKQGKSPQLLVYDATKLAEGVPSRFSGSESGTQYSLKINSLQSEDFGTYYCQHFWVTPWTFGGGTKLEIK | no binding (tested: 12 ng/mL) | 6.9% | 45.3% | – | – | 0.185 µg/mL | 2.34 OD | 41.5% | 1.31 OD | 1.44 OD |

Continued, values first:

| binding result (mouse TNFR2) | proliferation inhibition (TNFα-induced Treg cell proliferation, against anti-Hel) [1] | % AUC versus positive control (#52), ADCC against Treg [2] | ELISA OD [3] | ELISA OD [4] | IC50 [5] | ELISA OD of antibodies to be tested (2 nM) [6] | IC50 Relative Value % [7] | ELISA OD [8] | ELISA OD [9] | Binder |
| --- | --- | --- | --- | --- | --- | --- | --- | --- | --- | --- |
| no binding (tested: 28 ng/ml) | 9.7% | 46.6% | 3.12 OD | 3.18 OD | 0.04 µg/mL | 2.11 OD | 150% | – | – | TNFR2 antibody #133 (antibody, V domains shown) VH: EVQLQESGAELVRSGASVKLSCTASGFNIKDYYIQWVKQRPEQGLEWIGWIDPESGNTKYAPKFQDKATMTADTSSNTAYLQLSGLTSEDSAVYYCNAYYDYDGSMDYWGQGTTVTVSS VL: DIVMTQSPLSLPVSLGDQASISCRSSQSLVHSNGNTYLHWYLQKPGQSPKLLIYKVSNRFSGVPDRFSGSGSGTDFTLKISRVETDDLGVYFCSQSTHVPTWTFGGGTKLEIK |
| no binding (tested: 28 ng/ml) | 11% | 70.7% | 3.19 OD | 3.15 OD | 0.041 µg/mL | 1.26 OD | 232% | – | – | TNFR2 antibody #365 (antibody, V domains shown) VH: EVQLQESGPGLVQPSQSLSITCTVSGFSLTSYGVHWVRQSPGKGLEWLGLIWSDGSPDYSAAFISRLSINKDNSKSQVFFKMNSLQADDTAIYYCARNDDGGDYVMDYWGQGTTVTVSS VL: EIVLTQSPALMSASPGEKVTMTCSASSSVSYMYWYQQKPRSSPKPWIYLTSNLASGVPARFSGSGSGTSYSLTISSMEAEDAATYYCQQWTSNPLTFGAGTKLEIK |
| no binding (tested: 12 ng/mL) | – | 56% | – | – | 0.116 µg/mL | 2.14 OD | 70.7% | 1.9 OD | 2.27 OD | TNFR2 antibody #309 (antibody, V domains shown) VH: EVQLQESGAELVKPGASVKLSCKASGYTFTSYWIHWVKLRPGQGFEWIGEINPNNGGTDYNEKFKRKATLTVDKSSSTAYMELSSLTSEDSAIYYCTIDSMITTTWFAYWGQGTTVTVSS VL: EIVMTQSQKLMSTVVGDRVSVTCKASQNVGTNVAWFQQKPGQSPKALINSASYRYSGVPDRFTGSGSGTDFTLTISSVQSEDLAEYFCQQYNSYPFTFGSGTKLEIK |
